From PMC10031476, “Interaction of the bacterial division regulator MinE with lipid bicelles studied by NMR spectroscopy” (The Journal of Biological Chemistry, 2023)

Molecular target: the molecule itself
Experiment: NMR (3D 15N-separated NOE spectrum, NOE-TROSY); 2H/15N-labeled ngMinE bound to q = 0.5 DMPC:DHPC bicelles; 150 ms mixing time; 35 °C; 25 mM potassium phosphate pH 6.5, 1 mM EDTA, 1 mM benzamidine hydrochloride

B1: Full-length Neisseria gonorrhoeae MinE bearing the double mutation E46A/R10Q (natural protein)
chain: MSLIELLFGQKQKTATVARDRLQIIIAQERAQEGQTPDYLPTLRKALMEVLSKYVNVSLDNIRISQEKQDGMDVLELNITLPEQKKV
modifications: uniform 2H/15N or 2H/15N/13C isotope labeling
notes: Dimer with C2 symmetry (about 19 kDa); also called ngMinE; full-length ngMinE; not shown: His6, C-terminal, kept
B1: binds.
